This note sets out measurements from patent publication US10704030B2, “P450-BM3 variants with improved activity” (Codexis, Inc., priority 2015, dated 2020).

Assay type in all cases: biochemical
Data set [1] in a line: Validation of generalist properties: oxidation of diclofenac by lyophilized P450-BM3 variant, UPLC-MS. Particulars: for % Conv. / TON: [Diclofenac] = 1 mM; for TON: TON = [substrate]*% conversion/[P450]. On the procedure:
(§1) For the production of lyophilized protein powders, LB agar plates supplemented with chloramphenicol (30 μg/mL) were streaked with E. coli containing a desired B. megaterium P450-BM3 variant in an IPTG-inducible vector. The plates were grown at 37° C. for 16 hrs before single clones were selected to inoculate a 15 mL Falcon™ tube (Fisher) containing TB media (3 mL) supplemented with chloramphenicol (30 μg/mL). The tube was shaken at 200 rpm, 30° C., and 85% humidity for 20-24 h to grow the cultures to saturation. Then, 2.5 mL of the overnight culture was used to inoculate sterile 1 L flasks containing TB medium (250 mL) supplemented with chloramphenicol (30 μg/mL), trace element solution (as described above), and 0.05 g/L ammonium iron (III) citrate. After being shaken at 250 rpm, 30° C., and 85% humidity to an OD600 of 0.8-1.2, P450 expression was induced by addition of IPTG (500 uM) and the heme precursor 5-aminolevulinic acid (5-ALA) to a final concentration of 500 uM. The cultures were grown for additional 20-24 hours and centrifuged in pre-weighed 250 mL centrifuge bottles for 20 minutes at 4000 rpm, 4° C. The supernatants were discarded, and the centrifuge bottles containing cell pellets were weighed. The pellets were resuspended in 50 mM potassium phosphate buffer with 2 mM DTT, pH 8.0 (5 mL of buffer per gram of cell pellet). The cells were lysed using a microfluidizer homogenizer, and the suspensions of cells and lysate were collected in sterile 50 mL centrifuge tubes. The samples were centrifuged for 30 minutes at 10,000 rpm, 4° C. The clarified lysate was collected into a plastic petri plate and frozen at −80° C. prior to lyophilization. The enzyme-containing lysates were lyophilized using standard methods known in the art.
(§2) Enzyme stocks (˜12 μM) were prepared by dissolving ˜20 mg of each enzyme in 100 mM potassium phosphate buffer, pH 8.0 (1 mL). The concentration of each enzyme stock solution was determined by the UV-visible absorption spectroscopy (after centrifugation to remove particulates) and diluted to standardize at 12 μM heme protein. Substrate solutions were prepared by dissolving each substrate in DMSO to reach a final concentration of 20 mM or 40 mM. Reaction mix (235 μL) followed by enzyme solution (50 μL) was added to the plates. The substrate stock solution was added to the enzyme solutions (15 μL at the two different concentrations). Each reaction contained 100 mM potassium phosphate, 1.0 mM NADP+, 25 mM glucose, 0.5 mg/mL glucose dehydrogenase, 5% DMSO and substrate at 1 or 2 mM. Loratadine, imatinib, and gefitinib (See, FIG. 1) were selected as substrates in addition to diclofenac to validate improved BM3 variants. The reactions were shaken at 450 rpm at 30° C. over 24 hours. All reactions were diluted with acetonitrile to a final concentration of 0.5 mM substrate. The plates were then centrifuged at 3,000 g for 1 hour at 20° C. The supernatant was diluted 1:1 with acetonitrile, filtered using a 0.4 micron filter, and analyzed by UPLC-MS.
(§3) For UPLC-MS analysis, the quenched and filtered reactions were transferred to 96-well HTP plates for analysis by UPLC on a Waters Acquity H-class system equipped with an autosampler. 1 uL of quenched sample was injected onto an Acquity UPLC HSS T3 column, 100 Å, (1.8 um; 2.1×100 mm). The column was eluted at a constant flow rate of 0.6 mL/min; conditions with solvent A (0.05% trifluoroacetic acid v/v, in H2O) and solvent B (0.05% trifluoroacetic acid v/v, in acetonitrile) used to elute the products of the reaction were: 0-2 min, A/B 95:5; 2-2.9 min, A/B 5:95; 2.9-3 min, A/B 95:5; 3-3.5 min, A/B 95:5. Column eluent was monitored by PDA (200-600 nm) prior to MS analysis in positive ESI mode (desolvation temperature 350° C., 3.25 kV spray voltage, cone voltage 25V). The column eluent was diverted to waste for the first 0.7 minutes of the run. For the remainder of the LC run, both MS (m/z 95-600 scan range) and MS/MS were collected. […]

Data set [2] is described as follows: Validation of generalist properties: oxidation of gefitinib by lyophilized P450-BM3 variant, UPLC-MS. The conditions noted are these: for % Conv. / TON: [Gefitinib] = 1 mM; for TON: TON = [substrate]*% conversion/[P450]. Here is the method: as §1, §2, §3
The nature of data set [3]: Validation of generalist properties: oxidation of loratadine by lyophilized P450-BM3 variant, UPLC-MS. The conditions noted are these: for % Conv. / TON: [Loratadine] = 1 mM; for TON: TON = [substrate]*% conversion/[P450]. On the procedure: as §1, §2, §3
Data set [4] in a line: Validation of generalist properties: oxidation of imatinib by lyophilized P450-BM3 variant, UPLC-MS. The conditions noted are these: for % Conv. / TON: [Imatinib] = 1 mM; for TON: TON = [substrate]*% conversion/[P450]. Here is the method: as §1, §2, §3

B1: SEQ ID NO: 2: P450-BM3 parental backbone from the commercially available MCYP panel; a chimera, P450 domain 86% identical to Bacillus subtilis P450 (protein)
chain: MLMKQASAIPQPKTYGPLKNLPHLEKEQLSQSLWRIADELGPIFRFDFPGVSSVFVSGHNLVAEVCDEERFDKSIEGALEKVRAFSGDGLATSWTHEPNWRKAHNILMPTFSQRAMKDYHEKMVDIATQLIQKWSRLNPNEEIDVADDMTRLTLDTIGLCGFNYRFNSFYRDQPHPFITSMVRALDEAMNKLQRANPDDPAYDENKRQFQEDIKVMNDLVDSIIAERRANGDQDEKDLLARMLNVEDPETGEKLDDENIRFQIITFLIAGHETTSGLLSFAIYCLLTHPEKLKKAQEEADRVLTDDTPEYKQIQQLKYIRMVLNETLRLYPTAPAFSLYAKEDTVLGGEYPISKGQPVTVLIPKLHRDQNAWGPDAEDFRPERFEDPSSIPHHAYKPFGNGQRACIGMQFALQEATMVLGLVLKHFELINHTGYELKIKEALTIKPDDFKITVKPRKTAAINVQRKEQAEQSAKKVRKKAENAHNTPLLVLYGSNMGTAEGTARDLADIAMSKGFAPQVATLDSHAGNLPREGAVLIVTASYNGHPPDNAKQFVDWLDQASADEVKGVRYSVFGCGDKNWATTYQKVPAFIDETLAAKGAENIADRGEADASDDFEGTYEEWREHMWSDVAAYFNLDIENSEDNKSTLSLQFVDSAADMPLAKMHGAFSTNVVASKELQQPGSARSTRHLEIELPKEASYQEGDHLGVIPRNYEGIVNRVTARFGLDASQQIRLEAEEEKLAHLPLAKTVSVEELLQYVELQDPVTRTQLRAMAAKTVCPPHKVELEALLEKQAYKEQVLAKRLTMLELLEKYPACEMKFSEFIALLPSIRPRYYSISSSPRVDEKQASITVSVVSGEAWSGYGEYKGIASNYLAELQEGDTITCFISTPQSEFTLPKDPETPLIMVGPGTGVAPFRGFVQARKQLKEQGQSLGEAHLYFGCRSPHEDYLYQEELENAQSEGIITLHTAFSRMPNQPKTYVQHVMEQDGKKLIELLDQGAHFYICGDGSQMAPAVEATLMKSYADVHQVSEADARLWLQQLEEKGRYAKDVWAG
modifications: P450_BM3
notes: P450-BM3 parental backbone from the commercially available MCYP panel; a chimera, P450 domain 86% identical to Bacillus subtilis P450
On to B1, for which the “% Conv.” value is recorded as “+ (0-5.00)” in data set [1], “+ (0-5.00)” in data set [2], “+ (0-5.00)” in data set [3] and “++ (5.01-10.00)” in data set [4]. Besides, the TON result was “‡ (0-1000)” in data set [1], “‡ (0-1000)” in data set [2], “‡ (0-1000)” in data set [3] and “‡‡ (1001-5000)” in data set [4].

B2: SEQ ID NO: 4: P450-BM3 parental backbone from the commercially available MCYP panel (MCYP-0343; Codexis) (protein)
chain: MTIKEMPQPKTFGELKNLPLLNTDKPVQALMKIADELGEIFKFEAPGCVTRYLSSQRLIKEACDESRFDKNLSQALKFARDFAGDGLVTSWTHEINWKKAHNILLPSFSQQAMKGYHAMMVDIAVQLVQKWERLNADEHIEVSEDMTRLTLDTIGLCGFNYRFNSFYRDQPHPFIISMVRALDEVMNKLQRANPDDPAYDENKRQCQEDIKVMNDLVDKIIADRKARGEQSDDLLTQMLNGKDPETGEPLDDGNISYQIITFLIAGHETTSGLLSFALYFLVKNPHVLQKVAEEAARVLVDPVPSYKQVKQLKYVGMVLNEALRLWPTAPAFSLYAKEDTVLGGEYPLEKGDEVMVLIPQLHRDKTIWGDDVEEFRPERFENPSAIPQHAFKPFGNGQRACIGQQFALHEATLVLGMMLKHFDFEDHTNYELDIKETLTLKPEGFVVKAKSKKIPLGGIPSPSTEQSAKKVRKKAENAHNTPLLVLYGSNMGTAEGTARDLADIAMSKGFAPQVATLDSHAGNLPREGAVLIVTASYNGHPPDNAKQFVDWLDQASADEVKGVRYSVFGCGDKNWATTYQKVPAFIDETLAAKGAENIADRGEADASDDFEGTYEEWREHMWSDVAAYFNLDIENSEDNKSTLSLQFVDSAADMPLAKMHGAFSTNVVASKELQQPGSARSTRHLEIELPKEASYQEGDHLGVIPRNYEGIVNRVTARFGLDASQQIRLEAEEEKLAHLPLAKTVSVEELLQYVELQDPVTRTQLRAMAAKTVCPPHKVELEALLEKQAYKEQVLAKRLTMLELLEKYPACEMKFSEFIALLPSIRPRYYSISSSPRVDEKQASITVSVVSGEAWSGYGEYKGIASNYLAELQEGDTITCFISTPQSEFTLPKDPETPLIMVGPGTGVAPFRGFVQARKQLKEQGQSLGEAHLYFGCRSPHEDYLYQEELENAQSEGIITLHTAFSRMPNQPKTYVQHVMEQDGKKLIELLDQGAHFYICGDGSQMAPAVEATLMKSYADVHQVSEADARLWLQQLEEKGRYAKDVWAG
modifications: P450_BM3
With B2, the “% Conv.” value in data set [1] was “+++ (10.01-15.00)”; in data set [2], “+ (0-5.00)”; in data set [3], “++++ (15.01-20.00)”; in data set [4], “++ (5.01-10.00)”. Moreover, the TON result in data set [1] is given as “‡‡‡ (5001-10000)”; in data set [2] it was “‡ (0-1000)”; in data set [3] it was “‡‡‡‡ (10000-50000)”; in data set [4] it was “‡‡ (1001-5000)”. In addition, the “performance (% conversion at 1 mM substrate loading), in words” value in data set [1] (diclofenac, 1 mM substrate loading) is “moderate activity”; in data set [2] (gefitinib, 1 mM substrate loading), “low activity”; in data set [3] (loratadine, 1 mM substrate loading) it was “moderate activity”; in data set [4] (imatinib, 1 mM substrate loading) it was “low activity”.
